For one experiment, the system named is HLA-A2/POTE252 tetramer. The experiment is described as follows: HLA-A2/peptide tetramer stain and TCR Vβ repertoire of CTLs from immunized HHD-2 mice. The class given is in vivo. As to conditions: after 1-week in vitro stimulation with cognate peptide. The protocol: FIGS. 7A-7C are FACS plots showing HLA-A2/peptide tetramer staining and T cell receptor (TCR) repertoire determination for POTE 252- and POTE 252-9V-induced CTLs. HHD-2 mice were immunized subcutaneously with a mixture of peptide and cytokines in adjuvant. Two weeks after the second boost, pooled spleen cells from three mice were restimulated with irradiated splenocytes pulsed with 1.0 μM of peptide for 1 week. (FIG. 7A) Percentage of the HLA-A2/POTE252 tetramer-positive cells in the POTE 252- and POTE 252-9V-induced CTLs. (FIG. 7B) TCR Vβ repertoires of the tetramer^+CD8^+ T cells in POTE 252-induced CTLs. (FIG. 7C) TCR Vβ repertoires of the tetramer^+CD8^+ T cells in POTE 252-9V-induced CTLs.
AAD or HHD-2 mice were immunized subcutaneously (s.c.) in the base of the tail with 100 μl of an emulsion containing 1:1 incomplete Freund's adjuvant (Sigma) and PBS with peptides and cytokines (50 nmol of CTL epitope, 50 nmol of hepatitis B virus core 128-140 helper epitope, 5 μg of mouse interleukin-12, and 5 μg of mouse granulocyte macrophage colony-stimulating factor). Cytokines were purchased from Peprotech (Rocky Hill, N.J.). Mice were boosted 2 weeks later, and the spleens were removed 2 weeks after the boost. For all experiments, groups of three mice were used. […]

In the next experiment the target is T1, HLA-A2 molecule (Homo sapiens, UniProt P04439, D140Y/D185E/D98H/E176V/E277Q/G131W/G231S/I119V/I121R/I166T/I218V/L300P/L318F/N151K/N90K/P208A/P217A/Q86G/Q94H/R138H/R169H/T345S).
T1 construct: The T2 cell line is deficient for TAP1 and TAP2 transporter proteins and expresses low levels of HLA-A2; endogenous in cells; host or cells: T2 cell line (TAP1/TAP2-deficient)
Briefly: T2 binding assay (HLA-A2 up-regulation on TAP-deficient T2 cells). As to conditions: for FI0.5: peptide concentration that increases HLA-A2.1 expression by 50% over no peptide. The protocol:
FIG. 1 is a graph showing binding affinity of POTE peptides to HLA-A2 molecules. Peptides were dissolved in DMSO in double-distilled water and different concentrations of peptides were added into the culture of TAP-deficient T2 cells. After overnight culture of the cells in medium supplemented with β2-microglobulin, cells were stained with anti-HLA-A2. HLA-A2 expression was quantified as fluorescence index (FI) according to the following formula: FI=[(mean fluorescence intensity with peptide−mean fluorescence intensity without peptide)/mean fluorescence intensity without peptide]. Background fluorescence without BB7.2 was subtracted for each individual value. To compare the different peptides, FI0.5 (the peptide concentration that increases HLA-A2.1 expression by 50% over no peptide control background) was calculated from the titration curve for each peptide.
FIGS. 2A-2C are graphs showing binding affinity of substituted POTE peptides to HLA-A2 molecules. Shown are binding affinities of the substituted POTE 252 peptides (FIG. 2A), the substituted POTE 553 peptides (FIG. 2B) and the substituted POTE 323 peptides (FIG. 2C) to HLA-A2 molecules. Different concentrations of peptides were added into the culture of TAP-deficient T2 cells. After overnight culture of the cells in medium supplemented with β2-microglobulin, cells were stained with anti-HLA-A2 antibody.
Peptide binding capacity to the HLA-A2 molecule was measured by using the T2 cell line according to a protocol described previously (Peters et al., Bioinformatics 19(14):1765-1772, 2003). T2 cells (3×10^5 cells/well) were incubated overnight in 96-well plates with culture medium (1:1 mixture of RPMI 1640/Eagle-Hank's amino acid containing 2.5% fetal bovine serum, 100 U/ml penicillin, and 100 μg/ml streptomycin) with 10 μg/ml β2-microglobulin (Sigma) and different titrated concentrations of peptides (starting from 100 μM with 2-fold serial dilution) as shown in the figures to determine the concentration giving a 50% increasing in binding. Cells were washed once with cold HBSS containing 0.1% BSA and incubated for 30 minutes at 4° C. with anti-HLA-A2.1 BB7.2 monoclonal antibody (1:40 dilution from hybridoma supernatant). After washing, cells were stained with FITC-labeled goat anti-mouse immunoglobulin (BD, San Jose, Calif.), and the level of HLA expression was measured by flow cytometry. HLA-A2 expression was quantified as fluorescence index (FI) according to the following formula: FI=[(geometric mean fluorescence intensity with peptide-geometric mean fluorescence intensity without peptide)/geometric mean fluorescence intensity without peptide]. Background fluorescence without BB7.2 was subtracted for each individual value. To compare the different peptides, FI0.5, the peptide concentration that increases HLA-A2.1 expression by 50% over no peptide control background, was calculated from the titration curve for each peptide.

In the case of “KLMAKALLL [POTE 252-260, unmodified 9-mer peptide, residues 252-260 of human POTE]”, the “tetramer-positive CD8+ T cells” value in the experiment with HLA-A2/POTE252 tetramer was 9.3%. Also, in the experiment with HLA-A2 molecule (T2 binding assay), the “binding affinity for the HLA-A2 molecule (in words)” value is reported as “intermediate binders”. Besides, the FI0.5 was 1.5 µM with HLA-A2 molecule (substituted peptides and their wild types, Table 2 / FIGS. 2A-2C); about 1.6 µM with HLA-A2 molecule (wild-type peptides, Table 1 / FIG. 1).
